Reference: patent CN104628856A (INST RADIATION MED AMMS PLA; BEIJING C & N INTERNAT SCI …, dated 2015)

Biological target: T1, B淋巴细胞刺激因子(BLyS)蛋白 (human, UniProt Q9Y275 134-285, biotinylated (生物素化, sites not stated))
T1 construct: The protein was harvested from the culture supernatant, so it may be the soluble form; It was biotinylated for the ForteBio assay; also called BAFF; 抗原BLyS; not shown: His tag from vector p3457-his
Assay: ForteBio (BLI): biotinylated BLyS at 20 μg/ml loaded, B-11ScFv in 2-fold dilutions from 25 to 0.78125 μg/ml in PBS pH 7.4

T1 sequence (Q9Y275 134-285): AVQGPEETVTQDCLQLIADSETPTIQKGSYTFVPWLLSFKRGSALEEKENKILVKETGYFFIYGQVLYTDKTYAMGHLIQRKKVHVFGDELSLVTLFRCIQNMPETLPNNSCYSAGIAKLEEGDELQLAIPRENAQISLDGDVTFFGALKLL

B1: 抗BLyS单链抗体B-11ScFv (scFv, V domains shown)
VH: EVQLQESGGGLVQPGGSLRLSCAASGFTFSRYWMLWVRQAPGKGLVWVSRINTDGSSTWYADSVKGRFTISRDNAKNTLYLQMNSLRAEDTAVYYCARDQDGVGATHDYWGQGTLVTVSS
notes: Secreted from 293E cells out of plasmid p3457B-11ScFv and purified on a nickel column, about 30 kDa; also called 11号ScFv; 抗人BLyS ScFv抗体; not shown: His tag from vector p3457his (Ni column purification, anti-His blot)
Binder B1 has a Kd of 3.08 nM.
